{
  "source": "IntAct's records for PubMed 11864996",
  "parents": {"B1": {"name": "Forkhead box protein O3 (Homo sapiens), O43524 (parent)", "chain": "MAEAPASPAPLSPLEVELDPEFEPQSRPRSCTWPLQRPELQASPAKPSGETAADSMIPEEEDDEDDEDGGGRAGSAMAIGGGGGSGTLGSGLLLEDSARVLAPGGQDPGSGPATAAGGLSGGTQALLQPQQPLPPPQPGAAGGSGQPRKCSSRRNAWGNLSYADLITRAIESSPDKRLTLSQIYEWMVRCVPYFKDKGDSNSSAGWKNSIRHNLSLHSRFMRVQNEGTGKSSWWIINPDGGKSGKAPRRRAVSMDNSNKYTKSRGRAAKKKAALQTAPESADDSPSQLSKWPGSPTSRSSDELDAWTDFRSRTNSNASTVSGRLSPIMASTELDEVQDDDAPLSPMLYSSSASLSPSVSKPCTVELPRLTDMAGTMNLNDGLTENLMDDLLDNITLPPSQPSPTGGLMQRSSSFPYTTKGSGLGSPTSSFNSTVFGPSSLNSLRQSPMQTIQENKPATFSSMSHYGNQTLQDLLTSDSLSHSDVMMTQSDPLMSQASTAVSAQNSRRNVMLRNDPMMSFAAQPNQGSLVNQNLLHHQHQTQGALGGSRALSNSVSNMGLSESSSLGSAKHQQQSPVSQSMQTLSDSLSGSSLYSTSANLPVMGHEKFPSDLDLDMFNGSLECDMESIIRSELMDADGLDFNFDSLISTQNVVGLNVGNFTGAKQASSQSWVPG"}},
  "data": [
    {"variants_of": "B1", "conditions": "with 1433z_human YWHAZ", "values": [
      {"variant": "T32A;S253A;S315A", "effect of a mutation on the interaction": "disrupting interaction"}
    ]}
  ]
}
